The record followed here is US20250295803A1, “5T4 ANTIBODY-DRUG CONJUGATES AND USES THEREOF” (EXELIXIS, INC., priority 2022, published 2025).

Broadly, the EC50 is the concentration at which the effect is half-maximal. Lower therefore signals an effect from little substance.

Data set [1] in a line: Hydrophobic interaction chromatography (HIC) developability. It is filed as physicochemical. As to conditions: 1 mg/mL in Dulbecco's PBS pH 7.4. Here is the method: Antibodies that were selected for binding to 5T4, such as those described in Examples 2 and 3, were tested by various methods to assess developability. For example, various chromatographic methods, including size exclusion chromatography (SEC), hydrophobic interaction chromatography (HIC), and standup monolayer adsorption chromatography (SMAC) were employed to assess factors, such as monomer percentage, solubility, and antibody aggregation or precipitation.
Hydrophobic interaction chromatography (HIC) analysis was performed using a 4.6 mm ID×3.5 cm TSKgel Butyl-NPR column (Tosoh Bioscience LLC, PN 14947) on an Agilent 1100 HPLC. Antibodies were normalized to 1 mg/mL concentration in Dulbecco's PBS (pH 7.4, without Ca^2+/Mg^2+). The column was equilibrated with 100% mobile phase Buffer A (2 M ammonium sulfate/20 mM sodium phosphate, pH 7.0) at a flow rate of 1 mL/minute at ambient temperature. For each sample, 10 μL was loaded and eluted using a gradient from 100% mobile phase buffer A to 100% mobile phase buffer B (20 mM sodium phosphate, pH 7.0) at 1.0 mL/minute over 15 minutes, held at 100% B for 3 minutes to wash the column, and returned 100% A for 2 minutes for equilibration. Absorbance was monitored at 280 nm. Sample retention time was calculated and compared to a set of standard controls to identify antibodies with increased retention time (increased hydrophobicity) and the presence of multiple species. Data analysis was performed using Agilent ChemStation B.04.03 SP1

In data set [2] the target is T1, HEK293 and CHO cells transfected to express rat 5T4 (Rattus norvegicus, UniProt Q5PQV5).
T1 construct: expressed in transfected cells; host or cells: HEK293 and CHO
T1 sequence (Q5PQV5 32-426): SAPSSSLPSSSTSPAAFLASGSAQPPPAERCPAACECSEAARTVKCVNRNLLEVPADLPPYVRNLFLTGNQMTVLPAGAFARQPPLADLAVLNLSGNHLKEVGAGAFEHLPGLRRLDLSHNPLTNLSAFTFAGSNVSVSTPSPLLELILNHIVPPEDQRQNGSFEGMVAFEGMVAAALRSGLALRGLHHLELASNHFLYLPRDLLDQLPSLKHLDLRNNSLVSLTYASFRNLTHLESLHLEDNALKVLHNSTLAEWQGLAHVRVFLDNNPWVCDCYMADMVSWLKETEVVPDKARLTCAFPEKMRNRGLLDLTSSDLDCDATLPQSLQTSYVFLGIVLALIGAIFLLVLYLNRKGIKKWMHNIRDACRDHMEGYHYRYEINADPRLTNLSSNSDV
Briefly: Cell binding to transfected HEK293 and CHO cells, rat 5T4. Type of data set: cell-based. As to the method:
Unconjugated antibodies were tested for their ability to bind to HEK293 and CHO cells transfected to express human, cyno, rat, or mouse 5T4.

The next data set concerns the target T2, human 5T4 (Homo sapiens, UniProt Q13641).
T2 sequence (Q13641 32-355 limits assumed): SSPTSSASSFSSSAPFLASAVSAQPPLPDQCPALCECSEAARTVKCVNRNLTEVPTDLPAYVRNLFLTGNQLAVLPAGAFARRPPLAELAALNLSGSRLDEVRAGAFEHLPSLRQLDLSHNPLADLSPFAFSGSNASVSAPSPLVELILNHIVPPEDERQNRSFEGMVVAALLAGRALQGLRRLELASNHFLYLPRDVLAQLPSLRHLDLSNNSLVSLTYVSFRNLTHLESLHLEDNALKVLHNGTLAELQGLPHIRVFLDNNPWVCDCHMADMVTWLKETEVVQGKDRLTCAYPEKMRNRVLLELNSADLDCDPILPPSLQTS
Briefly: Octet monovalent binding affinity assay. As to conditions: in all three lots of human 5T4. Further details: polyhistidine (C); Avi tag (C); purchased Acro Biosystems TPGH52E. As to the method: Monovalent binding assays were employed to determine the relative affinity of each 5T4 binder obtained by the phage display in Example 1 to human 5T4. Human 5T4 was purchased from Acro Biosystems (Acro Catalog No. TPGH52E) and also produced separately. The monovalent interaction of binders to human 5T4 was monitored using an Octet (Pall ForteBio) instrument. For these assays, 36 nM antibody was immobilized on anti-human Fc (AHC) sensors in 1× kinetic buffer (ForteBio). The sensors were then dipped in wells containing a 3× serial dilution of human 5T4 ranging from 1 μM to 1.37 nM. The association was allowed to reach equilibrium. Sensors were then moved to wells containing only 1× kinetic buffer and allowed to dissociate to equilibrium. Association and dissociation rates were measured and from these, monovalent KDS were calculated using the onboard analysis software (ForteBio).

In data set [3] the target is T3, unconjugated human TPBG/5T4 protein with a c-terminal polyhistidine and Avi tag (AcroBiosystems Cat. No. … (human, UniProt Q13641 32-355)).
T3 construct: Bought protein; also called Acro TPGH52E5; Acro Catalog No. TPGH52E; not shown: C-terminal polyhistidine and Avi tag
T3 sequence: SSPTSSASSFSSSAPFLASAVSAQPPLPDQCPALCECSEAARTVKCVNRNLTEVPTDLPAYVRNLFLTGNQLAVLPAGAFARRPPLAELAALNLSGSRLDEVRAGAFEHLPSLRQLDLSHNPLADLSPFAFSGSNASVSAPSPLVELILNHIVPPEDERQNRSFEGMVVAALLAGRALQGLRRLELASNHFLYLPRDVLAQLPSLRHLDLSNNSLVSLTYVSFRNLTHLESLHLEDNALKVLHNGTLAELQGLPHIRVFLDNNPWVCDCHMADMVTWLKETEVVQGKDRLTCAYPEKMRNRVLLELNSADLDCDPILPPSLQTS
Description: ELISA on coated human 5T4 His-Avi (Acro TPG-H52E5); antibody condition: pH 8.5 Day 0. As to the method:
(§1) A. Normal Binding Unconjugated antibodies were tested for their ability to bind to human 5T4 (hu5T4) using ELISA. On Day 1, unconjugated human TPBG/5T4 protein with a c-terminal polyhistidine and Avi (AVITAG™) tag (AcroBiosystems (Newark, DE, USA), Cat. No. TPG-H52E5) was diluted 2 μg/mL in PBS, mixed thoroughly, plated 100 μL per well in a 96-well plate (Nunc MAXISORP®) and incubated overnight at 4° C.

For data set [4], the target named is T3, unconjugated human TPBG/5T4 protein …. Briefly: ELISA on coated human 5T4 His-Avi (Acro TPG-H52E5); antibody condition: pH 5.5 Day 4. Here is the method: as §1
On the technique in general: In an ELISA, binding on a coated surface is turned into a signal by an enzyme label.

Data set [5] shares this target. Briefly: ELISA on coated human 5T4 His-Avi (Acro TPG-H52E5); antibody condition: pH 8.5 Day 14. Here is the method: as §1
For data set [6] the target is unchanged. Description: ELISA on coated human 5T4 His-Avi (Acro TPG-H52E5); antibody condition: PBS time 48 hr. As to the method:
as §1
3. Oxidative Stress. Several unconjugated antibodies were tested for their ability to bind to 5T4 using ELISA in an oxidative environment. Solutions of 1 mg/mL to 10 mg/mL of antibody in 20 mM citrate/50 mM NaCl at a pH of 5.5 were prepared and stored at 37° C. for 1 to 2 weeks.

B1: mAbA4: 5T4 antibody comprising VH of SEQ ID NO:25 and VL of SEQ ID NO:26 (antibody, V domains shown)
VH: EVQLVESGGGLVQPGGSLRLSCAASGFTFSRYYIHWVRQAPGKGLEWVAFISPGGSYTYYADSVKGRFTISADTSKNTAYLQMNSLRAEDTAVYYCAREYYSMGVLDYWGQGTLVTVSS
VL: DIQMTQSPSSLSASVGDRVTITCRASQSVSSAVAWYQQKPGKAPKLLIYSASSLYSGVPSRFSGSRSGTDFTLTISSLQPEDFATYYCQQAYESPYTFGQGTKVEIK
modifications: Antibody mAbA4 VH Sequence; Antibody mAbA4 VL Sequence
Take B1: the “developability based on HIC analysis” value in data set [1] was “strong developability”. Besides, in data set [2], the “reactivity to cells transfected to express rat 5T4” value (“reactivity to cells transfected” below) is “not to cells transfected to express rat or mouse 5T4”. The monovalent binding strength entry with human 5T4 is on record as “strong or moderate binding”.

B2: mAbA15: 5T4 antibody comprising VH of SEQ ID NO:44 and VL of SEQ ID NO:45 (antibody, V domains shown)
VH: EVQLVESGGGLVQPGGSLRLSCAASGFTFSSYYIHWVRQAPGKGLEWVAYITSTGSYTEYADSVKGRFTISADTSKNTAYLQMNSLRAEDTAVYYCARYDRSTRYSGLDYWGQGTLVTVSS
VL: DIQMTQSPSSLSASVGDRVTITCRASQSVSSAVAWYQQKPGKAPKLLIYSASSLYSGVPSRFSGSRSGTDFTLTISSLQPEDFATYYCQQAYATPVTFGQGTKVEIK
modifications: Antibody mAbA15 VH Sequence; Antibody mAbA15 VL Sequence
On to B2, for which, in data set [1], the “developability based on HIC analysis” value was “strong developability”. The “reactivity to cells transfected” value in data set [2] is on record as “not to cells transfected to express rat or mouse 5T4”. In addition, the monovalent binding strength result with human 5T4 is “strong or moderate binding”.

B3: mAbA17 (antibody, V domains shown)
VH: EVQLVESGGGLVQPGGSLRLSCAASGFTFSRYWIHWVRQAPGKGLEWVAAIFPYSGSTLYADSVKGRFTISADTSKNTAYLQMNSLRAEDTAVYYCARSPSRSILPSGLDYWGQGTLVTVSS
VL: DIQMTQSPSSLSASVGDRVTITCRASQSVSSAVAWYQQKPGKAPKLLIYSASSLYSGVPSRFSGSRSGTDFTLTISSLQPEDFATYYCQQGDGSPYTFGQGTKVEIKR
notes: also called Antibody mAbA17
Regarding B3, the EC50 was 0.153 nM in data set [3], 0.157 nM in data set [4], 0.167 nM in data set [5] and 0.185 nM in data set [6].

B4: mAbA17: 5T4 antibody comprising VH of SEQ ID NO:62 and VL of SEQ ID NO:63 (antibody, V domains shown)
VH: EVQLVESGGGLVQPGGSLRLSCAASGFTFSRYWIHWVRQAPGKGLEWVAAIFPYSGSTLYADSVKGRFTISADTSKNTAYLQMNSLRAEDTAVYYCARSPSRSILPSGLDYWGQGTLVTVSS
VL: DIQMTQSPSSLSASVGDRVTITCRASQSVSSAVAWYQQKPGKAPKLLIYSASSLYSGVPSRFSGSRSGTDFTLTISSLQPEDFATYYCQQGDGSPYTFGQGTKVEIK
modifications: Antibody mAbA17 VH Sequence; Antibody mAbA17 VL Sequence
For B4, the “developability based on HIC analysis” value in data set [1] is given as “strong developability”. The “reactivity to cells transfected” value in data set [2] is “not to cells transfected to express rat or mouse 5T4”. The monovalent binding strength result with human 5T4 was “strong or moderate binding”.

B5: mAbA15 (antibody, V domains shown)
VH: EVQLVESGGGLVQPGGSLRLSCAASGFTFSSYYIHWVRQAPGKGLEWVAYITSTGSYTEYADSVKGRFTISADTSKNTAYLQMNSLRAEDTAVYYCARYDRSTRYSGLDYWGQGTLVTVSS
VL: DIQMTQSPSSLSASVGDRVTITCRASQSVSSAVAWYQQKPGKAPKLLIYSASSLYSGVPSRFSGSRSGTDFTLTISSLQPEDFATYYCQQAYATPVTFGQGTKVEIKR
notes: also called Antibody mAbA15
Regarding B5, the 50% effective concentration (EC50) in data set [3] came to 0.134 nM; in data set [4] it was 0.123 nM; in data set [5], 0.131 nM; in data set [6] it was 0.203 nM.

B6: mAbA4 (antibody, V domains shown)
VH: EVQLVESGGGLVQPGGSLRLSCAASGFTFSRYYIHWVRQAPGKGLEWVAFISPGGSYTYYADSVKGRFTISADTSKNTAYLQMNSLRAEDTAVYYCAREYYSMGVLDYWGQGTLVTVSS
VL: DIQMTQSPSSLSASVGDRVTITCRASQSVSSAVAWYQQKPGKAPKLLIYSASSLYSGVPSRFSGSRSGTDFTLTISSLQPEDFATYYCQQAYESPYTFGQGTKVEIKR
notes: also called Antibody mAbA4
For the molecule B6, the EC50 in data set [3] came to 0.12 nM; in data set [4] it was 0.125 nM; in data set [5], 0.136 nM; in data set [6], 0.189 nM.
